Literature values, collected in paper PMC5057102.

Target: Amyloid beta oligomers (1-40/1-42, form not specified) (UniProt P05067)
Assay: not stated (cited)
Conditions: 5'-HS (thiol); 0.1 M phosphate buffer (Na2HPO4/NaH2PO4) pH 7.4; incubations at 37 C (Abeta 60 min, aptamer-Au-Th 3 h); 1% BSA block

Amyloid beta oligomers (1-40/1-42, form not specified), sequence (P05067 672-711): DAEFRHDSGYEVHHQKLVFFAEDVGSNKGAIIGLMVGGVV

GCCTGTGTTGGGGCGGGTGCG [Abeta oligomer aptamer (thiolated, on AuNP with thionine)]
Kd: 25 nM
